Laboratory results as given in patent US20210388087A1 (Chugai, published 2021).

Molecular target: T1, CD3 epsilon homodimer protein (UniProt P07766 23-126)
T1 construct: also called CD3 (CD3 epsilon)
Test: SPR, CD3 epsilon homodimer on chip, one-arm antibody as analyte;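 also: surface plasmon resonance at 25 °C with CD3 epsilon homodimer amine-coupled to a CM4 sensor chip, antibody injected as analyte, HBS-EP+ as running buffer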

T1 sequence (P07766 23-126): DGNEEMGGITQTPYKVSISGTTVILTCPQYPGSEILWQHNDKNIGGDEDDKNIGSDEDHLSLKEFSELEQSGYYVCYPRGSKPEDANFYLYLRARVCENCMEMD

Row | Binder | KD ratio (KD of CE115HA000/KD of altered form)
1 | CE115HA000 E61P (antibody, human IgG1, kappa, L234A L235A, N297A, name in Kabat numbering, one-arm antibody) heavy: QVQLVESGGGVVQPGRSLRLSCAASGFTFSNAWMHWVRQAPGKGLEWVAQIKAKSNNYATYYAPSVKGRFTISRDDSKNSLYLQMNSLKTEDTAVYYCRYVHYGAYYGVDAWGQGTTVTVSSASTKGPSVFPLAPSSKSTSGGTAALGCLVKDYFPEPVTVSWNSGALTSGVHTFPAVLQSSGLYSLSSVVTVPSSSLGTQTYICNVNHKPSNTKVDKKVEPKSCDKTHTCPPCPAPEAAGGPSVFLFPPKPKDTLMISRTPEVTCVVVDVSHEDPEVKFNWYVDGVEVHNAKTKPREEQYASTYRVVSVLTVLHQDWLNGKEYKCKVSNKALPAPIEKTISKAKGQPREPQVYTLPPSRCELTKNQVSLSCAVKGFYPSDIAVEWESNGQPENNYKTTPPVLDSDGSFFLVSKLTVDKSRWQQGNVFSCSVMHEALHNHYTQKSLSLSPDYKDDDDK EPKSSDKTHTCPPCPAPELLGGPSVFLFPPKPKDTLMISRTPEVTCVVVDVSHEDPEVKFNWYVDGVEVHNAKTKPREEQYNSTYRVVSVLTVLHQDWLNGKEYKCKVSNKALPAPIEKTISKAKGQPREPQVCTLPPSRDELTKNQVSLWCLVKGFYPSDIAVEWESNGQPENNYKTTPPVLDSDGSFFLYSKLTVDKSRWQQGNVFSCSVMHEALHNRYTQKSLSLSP light: DIVMTQSPLSLPVTPGEPASISCRSSQSLVHSNRNTYLHWYQQKPGQAPRLLIYKVSNRFSGVPDRFSGSGSGTDFTLKISRVEAEDVGVYYCGQGTQVPYTFGQGTKLEIKRTVAAPSVFIFPPSDEQLKSGTASVVCLLNNFYPREAKVQWKVDNALQSGNSQESVTEQDSKDSTYSLSSTLTLSKADYEKHKVYACEVTHQGLSSPVTKSFNRGEC | 0.82
2 | CE115HA000 F29V (antibody, human IgG1, kappa, L234A L235A, N297A, name in Kabat numbering, one-arm antibody) heavy: QVQLVESGGGVVQPGRSLRLSCAASGFTVSNAWMHWVRQAPGKGLEWVAQIKAKSNNYATYYAESVKGRFTISRDDSKNSLYLQMNSLKTEDTAVYYCRYVHYGAYYGVDAWGQGTTVTVSSASTKGPSVFPLAPSSKSTSGGTAALGCLVKDYFPEPVTVSWNSGALTSGVHTFPAVLQSSGLYSLSSVVTVPSSSLGTQTYICNVNHKPSNTKVDKKVEPKSCDKTHTCPPCPAPEAAGGPSVFLFPPKPKDTLMISRTPEVTCVVVDVSHEDPEVKFNWYVDGVEVHNAKTKPREEQYASTYRVVSVLTVLHQDWLNGKEYKCKVSNKALPAPIEKTISKAKGQPREPQVYTLPPSRCELTKNQVSLSCAVKGFYPSDIAVEWESNGQPENNYKTTPPVLDSDGSFFLVSKLTVDKSRWQQGNVFSCSVMHEALHNHYTQKSLSLSPDYKDDDDK EPKSSDKTHTCPPCPAPELLGGPSVFLFPPKPKDTLMISRTPEVTCVVVDVSHEDPEVKFNWYVDGVEVHNAKTKPREEQYNSTYRVVSVLTVLHQDWLNGKEYKCKVSNKALPAPIEKTISKAKGQPREPQVCTLPPSRDELTKNQVSLWCLVKGFYPSDIAVEWESNGQPENNYKTTPPVLDSDGSFFLYSKLTVDKSRWQQGNVFSCSVMHEALHNRYTQKSLSLSP light: DIVMTQSPLSLPVTPGEPASISCRSSQSLVHSNRNTYLHWYQQKPGQAPRLLIYKVSNRFSGVPDRFSGSGSGTDFTLKISRVEAEDVGVYYCGQGTQVPYTFGQGTKLEIKRTVAAPSVFIFPPSDEQLKSGTASVVCLLNNFYPREAKVQWKVDNALQSGNSQESVTEQDSKDSTYSLSSTLTLSKADYEKHKVYACEVTHQGLSSPVTKSFNRGEC | 2.94
3 | CE115HA000 E61Q (antibody, human IgG1, kappa, L234A L235A, N297A, name in Kabat numbering, one-arm antibody) heavy: QVQLVESGGGVVQPGRSLRLSCAASGFTFSNAWMHWVRQAPGKGLEWVAQIKAKSNNYATYYAQSVKGRFTISRDDSKNSLYLQMNSLKTEDTAVYYCRYVHYGAYYGVDAWGQGTTVTVSSASTKGPSVFPLAPSSKSTSGGTAALGCLVKDYFPEPVTVSWNSGALTSGVHTFPAVLQSSGLYSLSSVVTVPSSSLGTQTYICNVNHKPSNTKVDKKVEPKSCDKTHTCPPCPAPEAAGGPSVFLFPPKPKDTLMISRTPEVTCVVVDVSHEDPEVKFNWYVDGVEVHNAKTKPREEQYASTYRVVSVLTVLHQDWLNGKEYKCKVSNKALPAPIEKTISKAKGQPREPQVYTLPPSRCELTKNQVSLSCAVKGFYPSDIAVEWESNGQPENNYKTTPPVLDSDGSFFLVSKLTVDKSRWQQGNVFSCSVMHEALHNHYTQKSLSLSPDYKDDDDK EPKSSDKTHTCPPCPAPELLGGPSVFLFPPKPKDTLMISRTPEVTCVVVDVSHEDPEVKFNWYVDGVEVHNAKTKPREEQYNSTYRVVSVLTVLHQDWLNGKEYKCKVSNKALPAPIEKTISKAKGQPREPQVCTLPPSRDELTKNQVSLWCLVKGFYPSDIAVEWESNGQPENNYKTTPPVLDSDGSFFLYSKLTVDKSRWQQGNVFSCSVMHEALHNRYTQKSLSLSP light: DIVMTQSPLSLPVTPGEPASISCRSSQSLVHSNRNTYLHWYQQKPGQAPRLLIYKVSNRFSGVPDRFSGSGSGTDFTLKISRVEAEDVGVYYCGQGTQVPYTFGQGTKLEIKRTVAAPSVFIFPPSDEQLKSGTASVVCLLNNFYPREAKVQWKVDNALQSGNSQESVTEQDSKDSTYSLSSTLTLSKADYEKHKVYACEVTHQGLSSPVTKSFNRGEC | 0.65

Second part, the binder after the results:

Row | KD ratio (KD of CE115HA000/KD of altered form) | Binder
4 | 0.9 | CE115HA000 E61D (antibody, human IgG1, kappa, L234A L235A, N297A, name in Kabat numbering, one-arm antibody) heavy: QVQLVESGGGVVQPGRSLRLSCAASGFTFSNAWMHWVRQAPGKGLEWVAQIKAKSNNYATYYADSVKGRFTISRDDSKNSLYLQMNSLKTEDTAVYYCRYVHYGAYYGVDAWGQGTTVTVSSASTKGPSVFPLAPSSKSTSGGTAALGCLVKDYFPEPVTVSWNSGALTSGVHTFPAVLQSSGLYSLSSVVTVPSSSLGTQTYICNVNHKPSNTKVDKKVEPKSCDKTHTCPPCPAPEAAGGPSVFLFPPKPKDTLMISRTPEVTCVVVDVSHEDPEVKFNWYVDGVEVHNAKTKPREEQYASTYRVVSVLTVLHQDWLNGKEYKCKVSNKALPAPIEKTISKAKGQPREPQVYTLPPSRCELTKNQVSLSCAVKGFYPSDIAVEWESNGQPENNYKTTPPVLDSDGSFFLVSKLTVDKSRWQQGNVFSCSVMHEALHNHYTQKSLSLSPDYKDDDDK EPKSSDKTHTCPPCPAPELLGGPSVFLFPPKPKDTLMISRTPEVTCVVVDVSHEDPEVKFNWYVDGVEVHNAKTKPREEQYNSTYRVVSVLTVLHQDWLNGKEYKCKVSNKALPAPIEKTISKAKGQPREPQVCTLPPSRDELTKNQVSLWCLVKGFYPSDIAVEWESNGQPENNYKTTPPVLDSDGSFFLYSKLTVDKSRWQQGNVFSCSVMHEALHNRYTQKSLSLSP light: DIVMTQSPLSLPVTPGEPASISCRSSQSLVHSNRNTYLHWYQQKPGQAPRLLIYKVSNRFSGVPDRFSGSGSGTDFTLKISRVEAEDVGVYYCGQGTQVPYTFGQGTKLEIKRTVAAPSVFIFPPSDEQLKSGTASVVCLLNNFYPREAKVQWKVDNALQSGNSQESVTEQDSKDSTYSLSSTLTLSKADYEKHKVYACEVTHQGLSSPVTKSFNRGEC
5 | 0.61 | CE115HA000 G65D (antibody, human IgG1, kappa, L234A L235A, N297A, name in Kabat numbering, one-arm antibody) heavy: QVQLVESGGGVVQPGRSLRLSCAASGFTFSNAWMHWVRQAPGKGLEWVAQIKAKSNNYATYYAESVKDRFTISRDDSKNSLYLQMNSLKTEDTAVYYCRYVHYGAYYGVDAWGQGTTVTVSSASTKGPSVFPLAPSSKSTSGGTAALGCLVKDYFPEPVTVSWNSGALTSGVHTFPAVLQSSGLYSLSSVVTVPSSSLGTQTYICNVNHKPSNTKVDKKVEPKSCDKTHTCPPCPAPEAAGGPSVFLFPPKPKDTLMISRTPEVTCVVVDVSHEDPEVKFNWYVDGVEVHNAKTKPREEQYASTYRVVSVLTVLHQDWLNGKEYKCKVSNKALPAPIEKTISKAKGQPREPQVYTLPPSRCELTKNQVSLSCAVKGFYPSDIAVEWESNGQPENNYKTTPPVLDSDGSFFLVSKLTVDKSRWQQGNVFSCSVMHEALHNHYTQKSLSLSPDYKDDDDK EPKSSDKTHTCPPCPAPELLGGPSVFLFPPKPKDTLMISRTPEVTCVVVDVSHEDPEVKFNWYVDGVEVHNAKTKPREEQYNSTYRVVSVLTVLHQDWLNGKEYKCKVSNKALPAPIEKTISKAKGQPREPQVCTLPPSRDELTKNQVSLWCLVKGFYPSDIAVEWESNGQPENNYKTTPPVLDSDGSFFLYSKLTVDKSRWQQGNVFSCSVMHEALHNRYTQKSLSLSP light: DIVMTQSPLSLPVTPGEPASISCRSSQSLVHSNRNTYLHWYQQKPGQAPRLLIYKVSNRFSGVPDRFSGSGSGTDFTLKISRVEAEDVGVYYCGQGTQVPYTFGQGTKLEIKRTVAAPSVFIFPPSDEQLKSGTASVVCLLNNFYPREAKVQWKVDNALQSGNSQESVTEQDSKDSTYSLSSTLTLSKADYEKHKVYACEVTHQGLSSPVTKSFNRGEC
6 | 0.61 | CE115HA000 G65E (antibody, human IgG1, kappa, L234A L235A, N297A, name in Kabat numbering, one-arm antibody) heavy: QVQLVESGGGVVQPGRSLRLSCAASGFTFSNAWMHWVRQAPGKGLEWVAQIKAKSNNYATYYAESVKERFTISRDDSKNSLYLQMNSLKTEDTAVYYCRYVHYGAYYGVDAWGQGTTVTVSSASTKGPSVFPLAPSSKSTSGGTAALGCLVKDYFPEPVTVSWNSGALTSGVHTFPAVLQSSGLYSLSSVVTVPSSSLGTQTYICNVNHKPSNTKVDKKVEPKSCDKTHTCPPCPAPEAAGGPSVFLFPPKPKDTLMISRTPEVTCVVVDVSHEDPEVKFNWYVDGVEVHNAKTKPREEQYASTYRVVSVLTVLHQDWLNGKEYKCKVSNKALPAPIEKTISKAKGQPREPQVYTLPPSRCELTKNQVSLSCAVKGFYPSDIAVEWESNGQPENNYKTTPPVLDSDGSFFLVSKLTVDKSRWQQGNVFSCSVMHEALHNHYTQKSLSLSPDYKDDDDK EPKSSDKTHTCPPCPAPELLGGPSVFLFPPKPKDTLMISRTPEVTCVVVDVSHEDPEVKFNWYVDGVEVHNAKTKPREEQYNSTYRVVSVLTVLHQDWLNGKEYKCKVSNKALPAPIEKTISKAKGQPREPQVCTLPPSRDELTKNQVSLWCLVKGFYPSDIAVEWESNGQPENNYKTTPPVLDSDGSFFLYSKLTVDKSRWQQGNVFSCSVMHEALHNRYTQKSLSLSP light: DIVMTQSPLSLPVTPGEPASISCRSSQSLVHSNRNTYLHWYQQKPGQAPRLLIYKVSNRFSGVPDRFSGSGSGTDFTLKISRVEAEDVGVYYCGQGTQVPYTFGQGTKLEIKRTVAAPSVFIFPPSDEQLKSGTASVVCLLNNFYPREAKVQWKVDNALQSGNSQESVTEQDSKDSTYSLSSTLTLSKADYEKHKVYACEVTHQGLSSPVTKSFNRGEC
